# Source: paper PMC4465127 (Nature Communications, 2015)
# B1: LET-23 extracellular region (sLET-23) (domain or fragment, C. elegans, UniProt P24348 21-819, looked up)
# chain: FGNSNAQLWKRCVSPQDCLCSGTTNGISRYGTGNILEDLETMYRGCRRVYGNLEITWIEANEIKKWRESTNSTVDPKNEDSPLKSINFFDNLEEIRGSLIIYRANIQKISFPRLRVIYGDEVFHDNALYIHKNDKVHEVVMRELRVIRNGSVTIQDNPKMCYIGDKIDWKELLYDPDVQKVETTNSHQHCYQNGKSMAKCHESCNDKCWGSGDNDCQRVYRSVCPKSCSQCFYSNSTSSYECCDSACLGGCTGHGPKNCIACSKYELDGICIETCPSRKIFNHKTGRLVFNPDGRYQNGNHCVKECPPELLIENDVCVRHCSDGHHYDATKDVRECEKCRSSSCPKICTVDGHLTNETLKNLEGCEQIDGHLIIEHAFTYEQLKVLETVKIVSEYITIVQQNFYDLKFLKNLQIIEGRKLHNVRWALAIYQCDDLEELSLNSLKLIKTGAVLIMKNHRLCYVSKIDWSSIITSKGKDNKPSLAIAENRDSKLCETEQRVCDKNCNKRGCWGKEPEDCLECKTWKSVGTCVEKCDTKGFLRNQTSMKCERCSPECETCNGLGELDCLTCRHKTLYNSDFGNRMECVHDCPVSHFPTQKNVCEKCHPTCYDNGCTGPDSNLGYGGCKQCKYAVKYENDTIFCLQSSGMNNVCVENDLPNYYISTYDTEGVIETHCEKCSISCKTCSSAGRNVVQNKCVCKHVEYQPNPSERICMDQCPVNSFMVPDTNNTVCKKCHHECDQNYHCANGQSTGCQKCKNFTVFKGDIAQCVSECPKNLPFSNPANGECLDYDIASRQRKTRM
# notes: signal peptide in the construct; LET-23, the C. elegans EGFR orthologue, extracellular region with domains I-V; Glycosylated (six predicted N-glycosylation sites); Constitutive dimer by SEC and SE-AUC; also called isolated LET-23 extracellular region; C. elegans EGFR extracellular region; source: Sf9 cells (baculovirus), purified from conditioned medium (Ni-NTA, cation exchange, Superose 6)
# B2: sLET-23ΔV (LET-23 extracellular region with domain V deleted) (domain or fragment, C. elegans, UniProt P24348 21-645, looked up)
# chain: FGNSNAQLWKRCVSPQDCLCSGTTNGISRYGTGNILEDLETMYRGCRRVYGNLEITWIEANEIKKWRESTNSTVDPKNEDSPLKSINFFDNLEEIRGSLIIYRANIQKISFPRLRVIYGDEVFHDNALYIHKNDKVHEVVMRELRVIRNGSVTIQDNPKMCYIGDKIDWKELLYDPDVQKVETTNSHQHCYQNGKSMAKCHESCNDKCWGSGDNDCQRVYRSVCPKSCSQCFYSNSTSSYECCDSACLGGCTGHGPKNCIACSKYELDGICIETCPSRKIFNHKTGRLVFNPDGRYQNGNHCVKECPPELLIENDVCVRHCSDGHHYDATKDVRECEKCRSSSCPKICTVDGHLTNETLKNLEGCEQIDGHLIIEHAFTYEQLKVLETVKIVSEYITIVQQNFYDLKFLKNLQIIEGRKLHNVRWALAIYQCDDLEELSLNSLKLIKTGAVLIMKNHRLCYVSKIDWSSIITSKGKDNKPSLAIAENRDSKLCETEQRVCDKNCNKRGCWGKEPEDCLECKTWKSVGTCVEKCDTKGFLRNQTSMKCERCSPECETCNGLGELDCLTCRHKTLYNSDFGNRMECVHDCPVSHFPTQKNVCEKCHPTCYDNGCTGPDSNLGYGGCK
# notes: signal peptide in the construct; LET-23 of C. elegans, extracellular domains I-IV (domain V deleted); Dimer by SEC-MALS, SE-AUC and SAXS; source: Sf9 cells (baculovirus), purified from conditioned medium (Ni-NTA, cation exchange, Superose 6)
# B3: sLET-23ΔIV/V (LET-23 extracellular region with domains IV and V deleted) (domain or fragment, C. elegans, UniProt P24348 21-539, looked up)
# chain: FGNSNAQLWKRCVSPQDCLCSGTTNGISRYGTGNILEDLETMYRGCRRVYGNLEITWIEANEIKKWRESTNSTVDPKNEDSPLKSINFFDNLEEIRGSLIIYRANIQKISFPRLRVIYGDEVFHDNALYIHKNDKVHEVVMRELRVIRNGSVTIQDNPKMCYIGDKIDWKELLYDPDVQKVETTNSHQHCYQNGKSMAKCHESCNDKCWGSGDNDCQRVYRSVCPKSCSQCFYSNSTSSYECCDSACLGGCTGHGPKNCIACSKYELDGICIETCPSRKIFNHKTGRLVFNPDGRYQNGNHCVKECPPELLIENDVCVRHCSDGHHYDATKDVRECEKCRSSSCPKICTVDGHLTNETLKNLEGCEQIDGHLIIEHAFTYEQLKVLETVKIVSEYITIVQQNFYDLKFLKNLQIIEGRKLHNVRWALAIYQCDDLEELSLNSLKLIKTGAVLIMKNHRLCYVSKIDWSSIITSKGKDNKPSLAIAENRDSKLCETEQRVCDKNCNKRGCWGKEPEDCLE
# notes: signal peptide in the construct; LET-23 of C. elegans, extracellular domains I-III (domains IV and V deleted); source: Sf9 cells (baculovirus), purified from conditioned medium (Ni-NTA, cation exchange, Superose 6)
# What was measured:
# [1] = target: the molecule itself; experiment: AUC; sedimentation equilibrium, without ligand; 1 to 8 μM receptor, 10 mM Hepes pH 8.0, 150 mM NaCl, 20 °C, three speeds; dimer to monomers
# [2] = target: the molecule itself; experiment: SEC; unliganded sLET-23 during initial purification; Superose 6 10/300 GL, 10 mM Hepes pH 8.0, 150 mM NaCl
# [3] = target: the molecule itself; experiment: SAXS; home source, I(0)/c, without ligand; 4 °C, pH 8.0, 1.2 to 5 mg/ml protein
# [4] = target: the molecule itself; experiment: AUC; sedimentation equilibrium with 50-70 μM LIN-3^EGF added; 1 to 8 μM receptor, 10 mM Hepes pH 8.0, 150 mM NaCl, 20 °C, three speeds; dimer to monomers
Protein,Kd [1],stoichiometry N [2],stoichiometry N [3],Kd [4]
B1,< 1 µM,2,,
B2,,,2,
B3,30 µM,,,5 µM
